From IntAct's records for PubMed 20598684

B1: Abl interactor 1 (Homo sapiens), Q8IZP0 (parent)
chain: MAELQMLLEEEIPSGKRALIESYQNLTRVADYCENNYIQATDKRKALEETKAYTTQSLASVAYQINALANNVLQLLDIQASQLRRMESSINHISQTVDIHKEKVARREIGILTTNKNTSRTHKIIAPANMERPVRYIRKPIDYTVLDDVGHGVKWLKAKHGNNQPARTGTLSRTNPPTQKPPSPPMSGRGTLGRNTPYKTLEPVKPPTVPNDYMTSPARLGSQHSPGRTASLNQRPRTHSGSSGGSGSRENSGSSSIGIPIAVPTPSPPTIGPENISVPPPSGAPPAPPLAPLLPVSTVIAAPGSAPGSQYGTMTRQISRHNSTTSSTSSGGYRRTPSVTAQFSAQPHVNGGPLYSQNSISIAPPPPPMPQLTPQIPLTGFVARVQENIADSPTPPPPPPPDDIPMFDDSPPPPPPPPVDYEDEEAAVVQYNDPYADGDPAWAPKNYIEKVVAIYDYTKDKDDELSFMEGAIIYVIKKNDDGWYEGVCNRVTGLFPGNYVESIMHYTD

Variants of: B1
Settings: with p85a_human PIK3R1, P27986
Sequence of p85a_human PIK3R1, P27986 (P27986 whole entry): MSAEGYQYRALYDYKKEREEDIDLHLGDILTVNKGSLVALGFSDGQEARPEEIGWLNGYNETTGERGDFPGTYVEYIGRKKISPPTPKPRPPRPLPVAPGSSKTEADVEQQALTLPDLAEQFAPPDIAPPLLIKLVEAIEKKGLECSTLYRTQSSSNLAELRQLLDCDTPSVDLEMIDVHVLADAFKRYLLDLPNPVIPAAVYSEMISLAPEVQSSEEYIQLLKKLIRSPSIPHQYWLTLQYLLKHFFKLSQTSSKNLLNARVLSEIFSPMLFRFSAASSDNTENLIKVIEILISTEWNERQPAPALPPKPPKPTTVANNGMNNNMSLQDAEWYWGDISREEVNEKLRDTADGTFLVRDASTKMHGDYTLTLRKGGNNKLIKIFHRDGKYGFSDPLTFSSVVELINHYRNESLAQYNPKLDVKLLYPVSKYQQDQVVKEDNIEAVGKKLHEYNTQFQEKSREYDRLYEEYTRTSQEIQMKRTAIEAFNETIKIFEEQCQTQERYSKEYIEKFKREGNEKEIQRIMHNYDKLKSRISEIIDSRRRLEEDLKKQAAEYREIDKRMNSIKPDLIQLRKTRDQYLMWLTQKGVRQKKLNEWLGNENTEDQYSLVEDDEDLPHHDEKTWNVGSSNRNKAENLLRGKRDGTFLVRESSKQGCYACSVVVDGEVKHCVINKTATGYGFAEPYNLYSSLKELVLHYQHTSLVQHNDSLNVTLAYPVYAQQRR

effect of a mutation on the interaction | Variant
disrupting interaction | Y213F
